Measured values as given in US10202593B2, “Evolved sortases and uses thereof” (President and Fellows of Harvard College, priority 2013, dated 2019).
“And” between values parts separate entries of the source, which are not always exact repeats. Identical values can stand only once. Like-named read-outs stand apart in the source and are kept apart here.

Key:
Type in all cases: biochemical
[1] = system: LPETG (Abz-LPETGK(Dnp)-CONH2); assay: In vitro sortase kinetics HPLC assay, LPETG substrate
Method in brief: (§1)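 Abz-LXEXGK(Dnp) peptides in 300 mM Tris pH 7.5, 150 mM NaCl, 5 mM CaCl2, 5% DMSO, GGG; 22.5° C., acid-quenched, converted fraction by reverse-phase HPLC peak areas. kcat and Km from eight substrate concentrations fit to Michaelis-Menten; KH at 1 mM substrate over eight GGG levels.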

LSETG = assay: In vitro sortase kinetics HPLC assay, LSETG substrate
Procedure: (§2) See below for details on sortase expression and purification, and on the synthesis of Abz-LPETGK(Dnp)-CONH2 (SEQ ID NO: 19). […] Reactions were initiated with the addition of enzyme and incubated at 22.5° C. for 3 to 20 minutes before quenching with 0.5 volumes of 1 M HCl. Five to ten nmol of peptide from the quenched reactions were injected onto an analytical reverse-phase Eclipse XDB-C18 HPLC column (4.6×150 mm, 5 μm, Agilent Technologies) and chromatographed using a gradient of 10 to 65% acetonitrile with 0.1% TFA in 0.1% aqueous TFA over 13 minutes. Retention times under these conditions for the Abz-LPETGK(Dnp)-CONH2 (SEQ ID NO: 19) substrate, the released GKDnp peptide, and the Abz-LPETGGG-COOH (SEQ ID NO: 20) product were 12.8, 10.4, and 9.1 min, respectively. To calculate the percent conversion, the ratio of the integrated areas of the Abz-LPETGGG-COOH (SEQ ID NO: 20) and Abz-LPETGK(Dnp)-CONH2 (SEQ ID NO: 19) peptide Abs220 peaks was compared to a standard curve generated by mixing the product and starting peptide in known ratios. To determine […] and Km, reaction rates were fit to the Michaelis-Menten equation using OriginPro 7.0 software. All kinetics values reported represent the average of at least three measurements. Percent conversion was also calculated by using the ratio of the integrated areas of the GK(Dnp)-CONH2 and Abz-LPETGK(Dnp)-CONH2 peptide Abs355 peaks were compared directly (Example 5). To determine kcat and Km, LPETG, reaction rates were fit to the Michaelis-Menten equation using Microsoft Excel using the Solver add-in. To determine Km,GGG and KH, reaction rates were fit to the modified Michaelis-Menten, for which KH is as defined when KH<<Km,GGG.
(§3) Assays to determine eSrtA, eSrtA(2A-9) and eSrtA(4S-9) specificity were performed by preparing 10 μM stocks of Abz-LXEXGK(Dnp) (SEQ ID NO: 75) peptides in 300 mM Tris pH 7.5, 150 mM NaCl, 5 mM CaCl2, 5% v/v DMSO, and 100 mM Gly-Gly-Gly-COOH (GGG). Reactions were performed by adding eSrtA(2A-9) to a final concentration of 450 nM, eSrtA(4S-9) to a final concentration of 115 nM or eSrtA to a final concentration of 47.5 nM and a final volume of 100 μL, then incubating at 22.5° C. for 15 minutes. Reactions were quenched by the addition of 0.2 volumes of 5 M HCl, then were injected onto an analytical reverse-phase Eclipse XDB-C18 HPLC column (4.6×150 mm, 5 μm, Agilent Technologies) and chromatographed using a gradient of 10 to 65% acetonitrile with 0.1% TFA in 0.1% aqueous TFA over 13 minutes. Retention times under these conditions for the Abz-LPETGK(Dnp)-CONH2 (SEQ ID NO: 19) substrate, the released GKDnp peptide, and the Abz-LPETGGG-COOH (SEQ ID NO: 20) product were 12.8, 10.4, and 9.1 min, respectively, while the remaining Abz-LXEXGK(Dnp)-CONH2 (SEQ ID NO: 74) substrates varied in retention time between 9 and 13 minutes. To calculate the percent conversion, the ratio of the integrated areas of the GK(Dnp)-CONH2 and Abz-LPETGK(Dnp)-CONH2 (SEQ ID NO: 19) peptide Abs355 peaks were compared directly. Subsequent determination of kcat/Km and KH were performed as described for in vitro SrtA characterization.
The original pentamutant comprising the mutations P94R, D160N, D165A, K190E, and K196T is referred to as eSrtA. Sortase variants herein were evolved using eSrtA as the parent enzyme in the evolution experiments. In some cases, an evolved sortase comprises a N160K mutation instead of a D160N or a T196S mutation instead of a K196T. Parameters are reported with their standard deviations as determined from three technical replicates. kcat, Km and kcat/Km parameters were determined at 100 mM GGG concentration, while Km,GGG and KH parameters were determined at 1 mM concentration of the listed substrate.

[2] = system: LAETG (Abz-LAETGK(Dnp)-CONH2); assay: In vitro sortase kinetics HPLC assay, LAETG substrate
Procedure: as §2, §3
In each case, rate constants were determined by measuring enzyme velocity at eight different substrate concentrations by HPLC assay, then fit using nonlinear regression to the Michaelis-Menten equation, yielding kcat and Km. KH was calculated by measuring enzyme velocity at 1 mM target substrate and eight different GGG concentrations by HPLC assay, then fitting the resulting curves using nonlinear regression to the modified Michaelis-Menten equation.

[3] = system: LPESG (Abz-LPESGK(Dnp)-CONH2); assay: In vitro sortase kinetics HPLC assay, LPESG substrate; details: for Km: read-out: Km
Method in brief: as §1

[4] = GGG varied, substrate 2A (LAETG)

B1: eSrtA(2A-9): P94R, S102C, A104H, E105D, K138P, K152I, N160K, K162H, T164N, D165A, K173E, I182V, K190E, T196S (protein)
chain: QAKPQIPKDKSKVAGYIEIPDADIKEPVYPGPATREQLNRGVCFHDENESLDDQNISIAGHTFIDRPNYQFTNLKAAKPGSMVYFKVGNETRIYKMTSIRKVHPNAVEVLDEQEGKDKQLTLVTCDDYNEETGVWESRKIFVATEVK
- KH ([1]; 1 mM LPETG): 27.1 ± 0.1 µM
- KN ([1]; 1 mM LPETG, eight GGG concentrations): 27.1 ± 0.1 µM
- Km ([1]; 1 mM LPETG, read-out: Km,GGG): 0.585 ± 0.003 mM
- Avg kcat (Hz) ([1]; Example 5 variants, substrate wt (LPETG)): 0.02091 Hz
- Km ([1]; Example 5 variants, substrate wt (LPETG), read-out: Avg KM): 1.27 mM
- KH,LPETG ([1]; LPETG substrate): 18.7 ± 3.3 µM
- Kcat (Hz) ([1]; Sub LPETG, 100 mM GGG): 0.0209 ± 0.004 Hz
- Km ([1]; Sub LPETG, 100 mM GGG, read-out: Km): 1.27 ± 0.062 mM
- Rel. Activity ([1]; Sub LPETG, kcat/Km of the enzyme's preferred substrate relative to kcat/Km on this substrate): 510
- Kcat (Hz) ([1]; Table 2, Sub LPETG): 0.0209 ± 0.0004 Hz
- Km ([1]; Table 2, Sub LPETG, read-out: Km): 1.27 ± 0.062 mM
- activity on LPETG ([1]; round 9 clones): minimally active on LPETG
- KH (LSETG; 1 mM LSETG): 26.0 ± 3.4 µM
- Km (LSETG; 1 mM LSETG, read-out: Km,GGG): 1270 ± 200 µM
- Kcat (Hz) (LSETG; Sub LSETG, 100 mM GGG): 0.115 ± 0.007 Hz
- Km (LSETG; Sub LSETG, 100 mM GGG, read-out: Km): 331 ± 67 µM
- preference for LAETG over LPESG [2]: > 1000 :1
- KH ([2]; 1 mM LAETG): 33 ± 4 µM
- KN ([2]; 1 mM LAETG, eight GGG concentrations): 33 ± 4 µM
- Km ([2]; 1 mM LAETG, read-out: Km,GGG): 1480 ± 190 µM
- Avg kcat (Hz) ([2]; Example 5 variants, substrate 2A (LAETG)): 2.23 Hz
- Km ([2]; Example 5 variants, substrate 2A (LAETG), read-out: Avg KM): 265 µM
- Avg kHydro (Hz) [2, 4]: 0.03506 Hz
- Avg kcat (Hz) [2, 4]: 1.587 Hz
- Km ([2]; KM for GGG, substrate 2A (LAETG), read-out: Avg KM): 1480 µM
- Kcat (Hz) ([2]; Sub LAETG, 100 mM GGG): 2.23 ± 0.02 Hz
- Km ([2]; Sub LAETG, 100 mM GGG, read-out: Km): 265 ± 9 µM
- Rel. Activity ([2]; Sub LAETG, kcat/Km of the enzyme's preferred substrate relative to kcat/Km on this substrate): 1
- Kcat (Hz) ([2]; Table 2, Sub LAETG): 2.23 ± 0.02 Hz
- Km ([2]; Table 2, Sub LAETG, read-out: Km): 265 ± 9 µM
- change in specificity for LAETG versus LPETG relative to eSrtA ([2]; ratio of (kcat/KM)target to (kcat/KM)LPETG, relative to eSrtA): 51,000 fold
- preference for LAETG over LPETG ([2]; ratio of kcat/KM): ~500 fold and 510 fold
- Specificity (relative catalytic efficiency, fold) ([2]; ratio of kcat/KM between 2A (LAETG) and wt (LPETG)): 509.8 fold
- Avg KH ([2]; substrate 2A (LAETG)): 32.79 µM
- activity on LPESG [3]: negligible activity
- Kcat (Hz) ([3]; Sub LPESG, 100 mM GGG): 0.0066 ± 0.0006 Hz
- Km ([3]; Sub LPESG, 100 mM GGG): 4.8 ± 1.2 mM
- Rel. Activity ([3]; Sub LPESG, kcat/Km of the enzyme's preferred substrate relative to kcat/Km on this substrate): 5943
- Kcat (Hz) ([3]; Table 2, Sub LPESG): 0.0066 ± 0.0006 Hz
- Km ([3]; Table 2, Sub LPESG): 4.8 ± 1.2 mM
